Measurements taken from patent US20240043859A1, “HERBICIDE-RESISTANT PROTEIN, AND GENE AND USE THEREOF” (QINGDAO KINGAGROOT CHEMICAL COMPOUND CO., LTD., priority 2020, published 2024).
“Also recorded” adds a separate entry of the source.

Columns and labels:
[1] = test system: Arabidopsis thaliana; assay: Herbicide resistance of transgenic Arabidopsis thaliana seedlings on plate medium (root growth); format: in vivo; conditions: plate medium with 2,4-D (0.3 μmol)
[2] = test system: soybean William82; assay: Spray testing of transgenic soybean T1 seedlings; format: in vivo; conditions: 2,4-D 4.48 kg/ha foliage spray, 10 days after spraying
Text: 1. Vector construction: the pQY2330 vector (see FIG. 8-1) was used as the overexpression vector, containing a Bar resistance gene that can be used as a selection marker for glufosinate. The AAD-like gene, QYD42, SEQ ID NO. 83, was linked to the Xho I restriction site by seamless cloning to construct the transgenic expression vector pQY2330, of which the expression cassette consisted of a double CaMV35S promoter, the AAD-like gene QYD42 and a […] Nos terminator.
2. Genetic transformation of soybeans: Soybean transformation was carried out using the Agrobacterium-mediated cotyledon nodes transformation method (Pareddy D, Chennareddy S, Anthony G, et al. Improved soybean transformation for efficient and high throughput transgenic production[J]. Transgenic Research, 2020, 29(968)). A monoclone of the Agrobacterium (EHA105) comprising the overexpression vector pQY2330 was inoculated into 5 ml YEP liquid medium (containing 25 mg/L Rifampicin and 50 mg/L Kanamycin) and shaking-cultured at 220 rmp/min, 28° C. for 8 hours. And then 0.2-0.3 ml bacteria solution was transferred to 200 ml YEP liquid medium (containing 25 mg/L Rifampicin and 50 mg/L Kanamycin) and shaking-cultured at 220 rmp/min, 28° C. overnight until the bacteria reached the exponential growth stage, then centrifuged at 4000 rmp/min for 20 min to collect the cells into a 50 ml centrifuge tube (sterilized). […]

[3] = Chromogenic reaction of degrading herbicides in bacteria: triclopyr; format: cell-based, Escherichia coli; conditions: recombinant E. coli expressing the gene
[4] = format: cell-based, Escherichia coli
[5] = Chromogenic reaction of degrading herbicides in bacteria: 2,4-D; format: cell-based, Escherichia coli; conditions: recombinant E. coli expressing the gene, 2,4-D added to the medium, red = phenols
Procedure, shortened: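 Colour from 2,4-D degradation was detected at A510 after 5 min at room temperature, with 4-aminoantipyrine and ferricyanide added to culture supernatant in pH 10 borate. Cultures were AAD12-expressing or empty-vector (pET15b) BL21(DE3), grown overnight at 28 °C with 0.5 mM 2,4-D, 0.1 mM IPTG and 2 mM α-ketoglutarate.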

B1: QYD42: AAD-like enzyme, SEQ ID NO. 83; expressed from vectors pQY2309 (Arabidopsis), pQY2329 (maize), pQY2330 (soybean) (protein)
chain: MQITPIADATFGATVTGLRLATLDDAGFARLHAAWLQHALLVFPGQFLTNAEQIGFAKRFGPIERIGGGDIVAISNVKADGTVRQHSPAEWDDMMKVIVGNMAWHADSTYMPVMAQGAVFSAEVVPPTGGRTCFADMRAAYDALDDATRALVHQRSARHSLVYSQSKLGHVQQAGSAYVGYGMDTTATPLRPLVKRHPETGRLSLLIGRHAHAIPGLEEAESERFLEDLVAWACQPPRVVAHHWTAGDVVLWDNRCLLHRAEPWDFTLPRVMWHSRLAGHPETEAAPLV
modifications: Synthetic polypeptide, QYD42, D42
2,4-D resistance of T1 generation transgenic seedlings (seminal root growth) [1]: showing tolerance to 2,4-D | Resistance of T1 transgenic soybean to 2,4-D (spray) [2]: no phytotoxicity; also recorded: remains normal | Chromogenic reaction of degrading herbicides in bacteria: Triclopyr [3]: Yes | Chromogenic reaction of degrading herbicides in bacteria: Triclopyr ([3]; listed as D42): slight degradation | Chromogenic reaction of degrading herbicides in bacteria: MCPA [4]: Yes | Chromogenic reaction of degrading herbicides in bacteria: 2,4-D [5]: Yes | Chromogenic reaction of degrading herbicides in bacteria: 2,4-D ([5]; listed as D42): could degrade 2,4-D; also recorded: capable of degrading 2,4-D
